Assay [1] deals with T1, cy-CD96 (soluble, extracellular domain) (cynomolgus monkey, UniProt P40200 22-516 (human entry), biotinylated in Octet and blocking ELISA).
T1 construct: the assays name only cy-CD96; also called biotinylated cy-CD96
T1 chain: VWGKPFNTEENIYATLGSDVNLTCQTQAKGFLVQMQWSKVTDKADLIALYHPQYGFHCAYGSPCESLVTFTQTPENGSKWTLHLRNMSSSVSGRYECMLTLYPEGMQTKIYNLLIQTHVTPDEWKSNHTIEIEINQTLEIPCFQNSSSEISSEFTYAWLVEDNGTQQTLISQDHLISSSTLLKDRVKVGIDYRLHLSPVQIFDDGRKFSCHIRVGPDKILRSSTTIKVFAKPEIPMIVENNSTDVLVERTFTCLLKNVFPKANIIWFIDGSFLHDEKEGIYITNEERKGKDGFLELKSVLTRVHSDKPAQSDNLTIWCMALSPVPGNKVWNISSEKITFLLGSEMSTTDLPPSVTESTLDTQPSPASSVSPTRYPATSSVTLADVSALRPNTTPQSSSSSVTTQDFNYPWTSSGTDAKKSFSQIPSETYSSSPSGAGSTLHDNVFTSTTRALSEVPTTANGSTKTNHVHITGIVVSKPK
The assay can be described thus: SPR 25C, IgG on Protein A, CD96 analyte. The protocol: SPR measurement with a BIACORE™ 8K instrument was performed to determine the monovalent binding affinity of mAb1.v7 and h10G1 IgG to hu-CD96, cy-CD96, and mo-CD96. Briefly, antibodies were diluted at 0.5 µg/mL in HBS-P buffer (0.01 M HEPES pH 7.4, 0.15 M NaCl, 0.005% Surfactant P20) and applied to the Protein A chip at 30 µL/min flow rate for 60 s in flow cell 2 (FC2). Then 3-fold serial dilutions of hu-CD96, cy-CD96, or mo-CD96 in HBS-P buffer (0.01 M HEPES pH 7.4, 0.15 M NaCl, 0.005% surfactant P20) from (0.4 nM) to high (100 nM) were injected (flow rate: 30 µL/min) at 25° C. to both flow cell 1 (FC1) and flow cell 2 (FC2). The sensorgram was recorded and subject to reference and buffer subtraction before evaluating by BIACORE® 8K Evaluation Software (version 1.1.1.7442). Association rates ($kon$) and dissociation rates ($koff$) were calculated using a simple one-to-one Langmuir binding model.

Another assay deals with T2, cy-CD226 His tag (cynomolgus monkey, UniProt A0A2K5W1Z6 19-247, biotinylated).
T2 sequence: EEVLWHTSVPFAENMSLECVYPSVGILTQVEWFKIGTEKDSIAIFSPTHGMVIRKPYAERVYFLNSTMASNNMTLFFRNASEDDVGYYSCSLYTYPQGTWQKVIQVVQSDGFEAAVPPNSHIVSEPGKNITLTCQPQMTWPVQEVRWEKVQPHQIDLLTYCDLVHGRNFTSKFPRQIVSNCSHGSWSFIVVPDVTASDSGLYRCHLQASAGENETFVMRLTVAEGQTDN
The assay is described as follows: SPR 25C, biotin-CD226-His captured, IgG analyte. The protocol: (§1) To determine the binding affinity to hu-CD226 and cy-CD226 of mAb1.v7.NGS8, h10G1, hCD155 and anti-hCD226 antibody DX11 (Abcam, cat #Ab33397), SPR measurement with a BIACORE™ 8K instrument was performed. Briefly, a 1:4 dilution of Biotin CAPture Reagent (GE Healthcare) into HBS-EP buffer (0.01 M HEPES pH 7.4, 0.15 M NaCl, 3 mM EDTA, 0.005% Surfactant P20) was applied to the chip at 2 µL/min flow rate. For the kinetics measurements, 5 µg/ml of biotinylated hu-CD226 His tag (Sino biological, cat #10565-H08H) and cy-CD226 His tag (Arco biosystems, cat #DN1-052H9) was captured at 10 µL/min to achieve ~50 response units in the second flow cell (FC2). FC1 was kept as a reference. Next, 3-fold serial dilutions of IgG in HBS-P buffer (0.01 M HEPES pH 7.4, 0.15 M NaCl, 0.005% surfactant P20) from low (1.3 nM) to high (1000 nM) concentration were injected (flow rate: 30 µL/min) at 25° C. The sensorgram was recorded and subject to reference and buffer subtraction before evaluating by BIACORE® 8K Evaluation Software (version 1.1.1.7442). Association rates ($kon$) and dissociation rates ($koff$) were calculated using a simple one-to-one Langmuir binding model. The equilibrium dissociation constant (K_D) value was calculated as the ratio of $koff/kon$. […]

The target of another assay is T3, hu-CD226 His tag (human, UniProt Q15762 19-247, limits assumed, biotinylated).
T3 sequence (looked up): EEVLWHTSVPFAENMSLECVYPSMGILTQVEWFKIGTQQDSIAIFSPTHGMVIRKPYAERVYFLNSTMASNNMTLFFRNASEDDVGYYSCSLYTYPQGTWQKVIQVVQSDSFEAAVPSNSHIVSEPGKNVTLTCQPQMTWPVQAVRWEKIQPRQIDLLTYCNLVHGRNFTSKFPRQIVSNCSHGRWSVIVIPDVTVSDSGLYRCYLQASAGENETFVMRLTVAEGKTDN
The assay can be described thus: SPR 25C, biotin-CD226-His captured, IgG analyte. On the procedure: as §1

Another assay concerns the target T4, hu-CD96 Fc (human, biotinylated in Table 16).
T4 construct: also called biotinylated hu-CD96-Fc
The assay can be described thus: SPR (Biacore), Fab.

The source of these data is patent publication US12365732 (23ANDME, dated 2025).

B1: h10G1 IgG (humanized 10G1) (antibody, V domains shown)
VH: EIQLVQSGSELKKPGASVKVSCKASGYPFTTYGMSWVRQAPGQGLEWMGWINTDSGVPTYADDFKGRFVFSLDTSVSTAYLQISSLKAEDTAVYFCARNIYYGWGNFDYWGQGTLVTVSS
VL: EIVMTQSPDFQSVTPKEKVTITCRASQDIYRNLHWYQQKPDQTPKLLIKHASDSISGIPSRFSGSGSGTDFTLTINSLEAEDAAAYYCLQGYSMPYTFGGGTKVEIKG
notes: human IgG1 N297G
The term Kd denotes the equilibrium constant for the complex coming apart. Take B1: in assay [1], the Kd amounted to 0.74 nM. Also, the binding result with cy-CD226 His tag and with hu-CD226 His tag was “no binding (tested: 1000 nM highest)” throughout.

B2: mAb1.v7 Fab (Fab, V domains shown)
VH: EVQLVQSGAEVKKPGASVKVSCKASGFTFTNNWMHWVRQAPGQGLEWIGMIHPNSGITNINEKFKNRVTMTTDTSTSTAYMELRSLRSEDTAVYYCRSDGTYEGYFDYWGQGTLVTVSS
VL: DIQLTQSPSSLSASVGDRVTITCKASQNVGTAIVWYQQKPGKAPKVLIYSASTRYTGVPSRFSGSGSGTDFTLTISSLQPEDFATYYCQQYSSSPLTFGQGTKVEIK
The koff is the first-order rate constant of dissociation. For orientation: kon means the rate constant with which the complex forms. Low readings indicate slow association, high ones fast association. In the assay with hu-CD96 Fc, B2 had a Kd of 44.6 nM, a koff of 0.000817 s⁻¹ and a kon of 18300 M⁻¹ s⁻¹.
